Data from patent publication US20210252159A1, “CONJUGATES OF CARTILAGE-HOMING PEPTIDES” (priority 2018, published 2021).
Positions of bridges follow the written chain, without caps; N, C: chain ends. Residues, ends and D or L forms follow the SMILES beside them. *: point of attachment. X4 = C[C@@H]1C[C@H]2[C@@H]3CCC4=CC(=O)C=C[C@]4(C)[C@@]3(F)[C@@H](O)C[C@]2(C)[C@@]1(O)C(=O)COC(=O)[C@H]1CC[C@H](C(=O)*)CC1; X3 = C[C@@H]1C[C@H]2[C@@H]3CCC4=CC(=O)C=C[C@]4(C)[C@@]3(F)[C@@H](O)C[C@]2(C)[C@@]1(O)C(=O)COC(=O)CCCC(=O)*

Tests used:
[1] = test system: CIA rats; details: for ankle swelling over time as compared to vehicle: 0.2 mg/kg and 0.5 mg/kg Dex equivalents IV days 11 and 12; for spleen weight / thymus weight / total body weight: 0.2 mg/kg and 0.5 mg/kg dose; for change in median ankle diameter between day 11 and day 13 as compared to vehicle / difference from Dex in change in ankle diameter: 0.2 mg/kg dose; for reduction in thymus weight as compared to vehicle: 0.2 mg/kg dose groups
Procedure: Arthritis was induced in 9-week-old female Lewis rats (Envigo or Charles River Laboratories) by intradermal injection while anesthetized of 400 ug bovine type II collagen (Chondrex Inc, Redmond Wash.) in 2 adjacent 200 ul (1 mg/ml) doses on day 0. Collagen is prepared for injection by dissolving at 2 mg/ml in 0.01N glacial acetic acid in sterile water and rocking at 4° C. overnight then emulsifying in Freund's incomplete adjuvant (IFA, Sigma Aldrich). To emulsify, equal volumes of collagen solution and IFA are drawn up into separate syringes, which are joined by a 3-way stopcock. While on ice, the collagen and IFA are mixed by pressing between the two syringes rapidly for 10 minutes. Quality of the emulsification is tested after 10 minutes of mixing by dropping a small amount of mixture in water. A properly emulsified solution will remain as a discrete droplet and not disperse in the water. On day 7, rats are challenged with a second intradermal injection of 100 ug of collagen in 100 ul, 1 mg/ml, collagen in IFA solution prepared fresh. Body weight and ankle diameter measurements are recorded daily from day 7 through the end of the study. Ankle diameter was measure by a single researcher using a Fowler Digitrix 2 micrometer. Three measurements of each ankle were taken of the lateral dimension at the tarsus of lightly anesthetized rats. The reported ankle diameter measurement is the mean of the three measurements.
Arthritis was induced as described in four cohorts of 9-week-old female Lewis rats. Rats were randomly placed in treatment groups, balancing compound and dose groups across cohorts. […] Rats were dosed by tail vein injection on days 11 and 12 and euthanized on day 13 by CO2 asphyxiation. Immediately after cessation of respiratory movement, blood was collected by cardiac puncture, synovial fluid was collected from both knees, one hind limb was fixed in formalin and the alternate ankle was frozen on dry ice. Thymus, spleen, liver, and kidney weights were recorded.
CIA Response study design.
The aim of the study was to test the 4 conjugates with various linkers at two different doses in vivo in CIA rats to assess the following: ability to deliver sufficient dexamethasone to the joint to show functionality and potential therapeutic effect in the disease model.
CIA was induced in female Lewis rats (as described above, see EXAMPLE 21). Body weight and ankle joint diameters were measured on day 0 and then daily from day 7 until euthanasia. […] At euthanasia, synovial fluid was collected from both knees, one hind limb was fixed in formalin and the alternate ankle was frozen on dry ice. Thymus, spleen, liver, and kidney weights were recorded. Blood samples were submitted for CBC/Chemistry analysis, and the remaining plasma was frozen.

[2] = Hydrolysis assay of peptide-drug conjugates in rat plasma (free drug by LC/MS); type: in vitro ADME; details: 37° C.
Procedure: Peptide-drug conjugate peptide(SEQ ID NO: 105)-DMA-dCIC was incubated in rat plasma at 37° C. Samples were removed at regular intervals, processed by solvent extraction, and analyzed by LC/MS to quantitate free dCIC. 11 time-points were measured between 5 min and 56 hours with 3 replicates per time point. The assay was repeated two times.
(§1) In order to determine hydrolysis rates, conjugates can be diluted in PBS, rat plasma, or human plasma and incubated at 37 degrees. Samples can be taken at designated time-points (e.g., 1, 2, 3, 5, 10, 15, 20, 25, 30, 45, 60, or 90 minutes and/or hours after administration). Internal standards such as triamcinolone acetonide (TAA) can be added as an internal standard, and then active agent/TAA can be extracted using acetonitrile, for example. The samples can be dried down, reconstituted, and analyzed by LC/MS. Data can be normalized using Dex AUC/TAA AUC. Percent hydrolysis can be calculated using the average ratio for active agent AUC/TAA AUC at a time point of maximal drug release. A general method can include using a lyophilized, purified peptide-drug conjugates reconstituted in DMSO following production to generate stock solution at 20 mg/mL. Each conjugate stock can be brought to 0.25 mg/mL in each hydrolysis condition (1×DPBS, human plasma and rat plasma) in triplicate and rocked at 37° C. To quantitate free active agent, 100 μl of the hydrolyzed conjugate solution can be transferred into 1 mL acetonitrile at 4° C. at which time all plasma proteins and intact conjugates can precipitate. This can be performed repeatedly to generate a series of time points (0 hr, 0.5 hr, 1 hr, 2 hr, 4 hr, 6 hr, 8 hr, 24 hr, 32 hr). The acetonitrile solution can be spun at 17,000 g for 5 minutes, and the supernatant removed and added to a 96 well block. The pellet can then be resuspended in 500 μl acetonitrile and re-pelleted as before. The supernatant can be removed and added to the same well in the block. Samples can be prepared for analysis by drying under a nitrogen stream followed by reconstitution in 110 μl 45:55 ACN:Citrate 10 mM pH 5.5. To ensure optimal recovery the block can be shaken via plate shaker at 7,000 rpm for 5 minutes during the reconstitution step. Prior to LC/MS the samples can be transferred to a 96 well plate and centrifuged at 6,500 g for 15 minutes. Analysis can be performed on an Agilent 1260 Infinity series HPLC with inline 6120 single quad MS using acetonitrile, water (+0.1% TFA) gradient (shown below) on an InfinityLab Poroshell SB-C18 column. Quantification of free active agent (or drug) can be achieved through integration of active agent peaks of the TIC.
(§2) Lyophilized, purified peptide-drug conjugates were reconstituted in DMSO following production to generate stock solution at 20 mg/mL. Each conjugate stock was brought to 0.25 mg/mL in each hydrolysis condition (1×DPBS, human plasma and rat plasma) in triplicate and rocked at 37° C.
(§3) To quantitate free dexamethasone (Dex), 100 μl of the hydrolyzed conjugate solution was transferred into 1 mL acetonitrile at 4° C. at which time all plasma proteins and intact conjugates precipitated. This was performed repeatedly to generate a series of time points (0 hr, 0.5 hr, 1 hr, 2 hr, 4 hr, 6 hr, 8 hr, 24 hr, 32 hr). The corticosteroid triamcinolone acetonide (25 μl, 0.1 mg/mL in 45:55 ACN:Citrate 10 mM pH 5.5) was supplemented into the acetonitrile solution as an internal standard. The acetonitrile solution was spun at 17,000 g for 5 minutes, and the supernatant removed and added to a 96 well block. The pellet was resuspended in 500 μl acetonitrile and re-pelleted as before. The supernatant was removed and added to the same well in the block.
Samples were prepared for analysis by drying under a nitrogen stream followed by reconstitution in 110 μl 45:55 ACN:Citrate 10 mM pH 5.5. To ensure optimal recovery the block was shaken via plate shaker at 7,000 rpm for 5 minutes during the reconstitution step. […]

[3] = Hydrolysis assay of peptide-drug conjugates in human plasma (free Dex by LC/MS); type: in vitro ADME; details: 37° C., release of free Dex, time points to 32 hr, read-out: Half-life (hours) as measured in the hydrolysis experiments (converted)
Procedure: as §1, with “To ensure optimal recovery the block can be shaken via plate shaker at 7,000 rpm for 5 minutes during the reconstitution step. Prior to LC/MS the samples can be transferred to a 96 well plate and centrifuged at 6,500 g for 15 minutes. Analysis can be performed on an Agilent 1260 Infinity series HPLC with inline 6120 single quad MS using acetonitrile, water (+0.1% TFA) gradient (shown below) on an InfinityLab Poroshell SB-C18 column.” left out, “TIC. […]” for “TIC.”
To quantitate free dexamethasone (Dex), 100 μl of the hydrolyzed conjugate solution was transferred into 1 mL acetonitrile at 4° C. at which time all plasma proteins and intact conjugates precipitated. […]

[4] = Hydrolysis assay of peptide-drug conjugates in PBS (free Dex by LC/MS); type: physicochemical; details: 37° C.; for Hydrolysis half-life: in PBS, free Dex
Procedure: as §1, §2, §3
Samples were prepared for analysis by drying under a nitrogen stream followed by reconstitution in 110 μl 45:55 ACN:Citrate 10 mM pH 5.5. To ensure optimal recovery the block was shaken via plate shaker at 7,000 rpm for 5 minutes during the reconstitution step. Prior to LC/MS the samples were transferred to a 96 well plate and centrifuged at 6,500 g for 15 minutes. Analysis was performed on an Agilent 1260 Infinity series HPLC with inline 6120 single quad MS using a gradient of 0.1% TFA in acetonitrile (solvent B), and 0.1% TFA (aq) (solvent A) gradient (shown below) on an InfinityLab Poroshell SB-C18 column. […]

[5] = Rat Plasma, release of free Dex, time points to 32 hr, read-out: Half-life (hours) as measured in the hydrolysis experiments (converted)
[6] = in rat plasma, free Dex, read-out: Hydrolysis half-life (converted)

Compound | ankle swelling over time as compared to vehicle [1] | spleen weight [1] | thymus weight [1] | total body weight [1] | change in median ankle diameter between day 11 and day 13 as compared to vehicle [1] | difference from Dex in change in ankle diameter [1] | reduction in thymus weight as compared to vehicle [1] | mortality and tolerability ([1]; 1 mg/kg Dex equivalents IV, some rats) | half-life at 0.25 mg/mL [2, 5] | half-life at 0.25 mg/mL [2, 6] | half-life at 0.25 mg/mL [3] | half-life at 0.25 mg/mL ([4]; PBS, release of free Dex, time points to 32 hr, read-out: Half-life (hours) as measured in the hydrolysis experiments (converted)) | Hydrolysis half-life [4] | Half-life (hours) as measured in the hydrolysis experiments ([4]; PBS, release of free Dex, time points to 32 hr)
CC[C@H](C)[C@@H]1NC(=O)[C@@H]2CSSC[C@H](NC(=O)[C@H](CCCNC(=N)N)NC(=O)[C@@H](NC(=O)[C@H](CC(N)=O)NC(=O)[C@@H](NC(=O)[C@@H]3CCCN3C(=O)[C@@H](NC(=O)CNC(=O)[C@H](CO)NC(=O)CNC(=O)CCCC(=O)OCC(=O)[C@@]3(O)[C@H](C)C[C@H]4[C@@H]5CCC6=CC(=O)C=C[C@]6(C)[C@@]5(F)[C@@H](O)C[C@@]43C)C(C)C)[C@@H](C)CC)C(C)C)C(=O)N[C@@H](CCCNC(=N)N)C(=O)NCC(=O)N[C@@H](CO)C(=O)N[C@@H](CCCNC(=N)N)C(=O)N[C@@H](CC(=O)O)C(=O)N[C@H]3CSSC[C@H](NC(=O)[C@H](CCCNC(=N)N)NC(=O)[C@H](CO)NC(=O)[C@H](CC(N)=O)NC1=O)C(=O)N[C@@H](Cc1c[nH]cn1)C(=O)N[C@H](C(=O)N[C@H](C(=O)N1CCC[C@H]1C(=O)O)[C@@H](C)O)CSSC[C@H](NC(=O)[C@@H]1CCCN1C(=O)[C@H](CC(=O)O)NC(=O)[C@H](CC(C)C)NC3=O)C(=O)N[C@@H](CCCNC(=N)N)C(=O)N[C@@H](CCCNC(=N)N)C(=O)N[C@@H](C)C(=O)NCC(=O)N[C@@H](CCSC)C(=O)N[C@@H](CCCNC(=N)N)C(=O)N[C@@H](Cc1ccccc1)C(=O)NCC(=O)N[C@@H](CCCNC(=N)N)C(=O)N2 [Compound 23, Peptide(SEQ ID NO: 105)-glutaric acid-Dex] (X3-GSGVPINVRCRGSRDCLDPCRRAGMRFGRCINSRCHCTP-OH; disulfide 10-30, 16-35, 20-37 (inferred); C-terminus assumed) | reduction in ankle swelling | reduction | reduction | reduction | statistically significant reduction in ankle diameter | no statistically significant difference | statistically significant | died overnight | 1.9 h | 1.9 h | 1.7 h | 6 h | 6 h | 
CC[C@H](C)[C@@H]1NC(=O)[C@@H]2CSSC[C@H](NC(=O)[C@H](CCCNC(=N)N)NC(=O)[C@@H](NC(=O)[C@H](CC(N)=O)NC(=O)[C@@H](NC(=O)[C@@H]3CCCN3C(=O)[C@@H](NC(=O)CNC(=O)[C@H](CO)NC(=O)CNC(=O)[C@H]3CC[C@H](C(=O)OCC(=O)[C@@]4(O)[C@H](C)C[C@H]5[C@@H]6CCC7=CC(=O)C=C[C@]7(C)[C@@]6(F)[C@@H](O)C[C@@]54C)CC3)C(C)C)[C@@H](C)CC)C(C)C)C(=O)N[C@@H](CCCNC(=N)N)C(=O)NCC(=O)N[C@@H](CO)C(=O)N[C@@H](CCCNC(=N)N)C(=O)N[C@@H](CC(=O)O)C(=O)N[C@H]3CSSC[C@H](NC(=O)[C@H](CCCNC(=N)N)NC(=O)[C@H](CO)NC(=O)[C@H](CC(N)=O)NC1=O)C(=O)N[C@@H](Cc1c[nH]cn1)C(=O)N[C@H](C(=O)N[C@H](C(=O)N1CCC[C@H]1C(=O)O)[C@@H](C)O)CSSC[C@H](NC(=O)[C@@H]1CCCN1C(=O)[C@H](CC(=O)O)NC(=O)[C@H](CC(C)C)NC3=O)C(=O)N[C@@H](CCCNC(=N)N)C(=O)N[C@@H](CCCNC(=N)N)C(=O)N[C@@H](C)C(=O)NCC(=O)N[C@@H](CCSC)C(=O)N[C@@H](CCCNC(=N)N)C(=O)N[C@@H](Cc1ccccc1)C(=O)NCC(=O)N[C@@H](CCCNC(=N)N)C(=O)N2 [Compound 25, Peptide(SEQ ID NO: 105)-trans-1,4-cyclohexyl-Dex] (X4-GSGVPINVRCRGSRDCLDPCRRAGMRFGRCINSRCHCTP-OH; disulfide 10-30, 16-35, 20-37 (inferred); C-terminus assumed) | reduction in ankle swelling | reduction | reduction | reduction | statistically significant reduction in ankle diameter | no statistically significant difference | statistically significant |  | 3.4 h | 3.4 h | 21.3 h |  | No Dex release ≤32 h | undetectable ≤32
